Laboratory results: patent US20070254831A1 (published 2007)
Where two headings read alike, the source gives them in different places. Bridge positions count the residues as written; N and C are the ends. Square brackets hold non-standard residues; d marks the D form. Ends that are not written are not given here.

Tests used:
soluble human FcRn [1] = molecular target: T1, soluble human FcRn (human, UniProt P55899 24-297; P61769 21-119, biotinylated (Sulfo-NHS-LC-Biotin) in the ELISA; amine-coupled to CM5 chip in SPR); assay: SPR, pH 6
T1 construct: also called shFcRn; biotinylated shFcRn
Experimental: (§1) The following steps were performed to cross-link soluble human or cynomolgus FcRn to the dextran surface of a CM5 sensor chip (Biacore AB, Uppsala, Sweden) by an amine coupling reaction involving 1-ethyl-(3-dimethylaminopropyl)-carbodiimide hydrochloride (EDC) (Biacore AB, Uppsala, Sweden) and N-hydroxysuccinimide (NHS) (Biacore AB, Uppsala, Sweden) as recommended by Biacore (BIAapplications Handbook, version AB, section 4.2, Biacore AB, Uppsala, Sweden). […] Residual sites on the FcRn flow cell were blocked with 1 M ethanolamine hydrochloride pH 8.5 (Biacore AB, Uppsala, Sweden). A control flow cell was blocked with ethanolamine for reference subtraction. For analysis of the monomeric peptides, FcRn was coated to a final density of 4000-5000 response units (RU). For analysis of the peptide dimers, FcRn was coated to a density of 2000-2500 RU. All SPR measurements were performed using a BIACORE 3000 Instrument (Biacore AB Uppsala, Sweden). For measurements done at either pH 6 or pH 7.4, experiments were performed in 50 mM phosphate, 100 mM sodium chloride, 0.01% surfactant P20 (Biacore AB, Uppsala, Sweden).
(§2) Ten, 2-fold dilutions of the peptide were injected over the FcRn-CM5 chip at a rate of 20 μl/min for 2 min. The peptide was dissociated from the chip for 2.5 minutes with buffer. Any remaining peptide was removed from the chip with a 30 second injection of HBS-P buffer (Biacore AB, Uppsala, Sweden) at a rate of 30 μl/min. Sensorgrams were generated and analyzed using BiaEval software version 3.1 (Biacore AB, Uppsala, Sweden). The equilibrium RU observed for each injection was plotted against concentration. The equilibrium KD values were derived by analysis of the plots using the steady state affinity model included in the BiaEval software.

soluble human FcRn [2] = molecular target: T1, soluble human FcRn; assay: ELISA, competitor human IgG
Experimental: (§3) The wells were coated with 100 μl/well of 1 μg/ml biotinylated-shFcRn in Buffer A. The plate was sealed and incubated at 37° C. for 2 hours. Afterwards, the plate washed with 200 μl/well of Buffer B (Buffer B: 100 mM MES pH 6, 150 mM NaCl, 0.5% BSA IgG-free (Jackson ImmunoResearch, West Grove, Pa.), 0.05% Tween-20). […] To allow for mixing, the plate was rocked for 2 minutes, sealed and incubated at 37° C. for 2 hours. […] The plate was covered, incubated for 30 minutes at room temperature and washed 4 times with 200 μl/well of ice-cold buffer B. SureBlue TMB substrate solution (100 μl/well, KPL, Gaithersburg, Md.) was added and the plate was allowed to incubate at room temperature until color developed, which took 5 to 10 minutes. Once color developed, 100 μl/well of TMB stop solution (KPL, Gaithersburg, Md.) was added and the absorbance was measured at 450 nm. The data was plotted as absorbance vs. peptide concentration to derive the inhibitory concentration 50% (IC₅₀) values.

soluble human FcRn [3] = molecular target: T1, soluble human FcRn; assay: SPR, pH 6; remark: listed apart in the source
Experimental: as §1, §2

soluble human FcRn [4] = molecular target: T1, soluble human FcRn; assay: SPR, pH 7.4
Experimental: as §1, §2

soluble human FcRn [5] = molecular target: T1, soluble human FcRn; assay: ELISA, competitor human IgG; remark: listed apart in the source
Experimental: as §3

soluble human FcRn [6] = molecular target: T1, soluble human FcRn; assay: ELISA, competitor human IgG; remark: listed apart in the source
Experimental: as §3

soluble human FcRn [7] = molecular target: T1, soluble human FcRn; assay: ELISA, competitor human IgG; remark: listed apart in the source
Experimental: as §3

soluble human FcRn [8] = molecular target: T1, soluble human FcRn; assay: ELISA, competitor human IgG; remark: listed apart in the source
Experimental: as §3

soluble human FcRn [9] = molecular target: T1, soluble human FcRn; assay: SPR, pH 6; remark: listed apart in the source
Experimental: as §1, §2

soluble human FcRn [10] = molecular target: T1, soluble human FcRn; assay: ELISA, competitor human IgG; remark: listed apart in the source
Experimental: as §3

T1 sequence (P55899 24-297 limits assumed, chain 1 of 2): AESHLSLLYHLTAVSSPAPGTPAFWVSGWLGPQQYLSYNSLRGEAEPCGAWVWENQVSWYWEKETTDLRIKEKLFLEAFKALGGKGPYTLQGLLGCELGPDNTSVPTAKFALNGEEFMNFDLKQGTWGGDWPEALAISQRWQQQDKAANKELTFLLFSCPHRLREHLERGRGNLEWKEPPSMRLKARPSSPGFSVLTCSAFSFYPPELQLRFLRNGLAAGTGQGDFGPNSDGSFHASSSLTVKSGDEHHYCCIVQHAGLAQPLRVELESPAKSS
T1 sequence (P61769 21-119 limits assumed, chain 2 of 2): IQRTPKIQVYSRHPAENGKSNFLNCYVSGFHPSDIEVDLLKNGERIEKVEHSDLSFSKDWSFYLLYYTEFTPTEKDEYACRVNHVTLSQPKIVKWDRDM

QRFXTGHXGGLYPCNGP (Pen at 4; 4-methoxy-Phe at 8; disulfide; C-terminal amide) [Peptide No. 56]
Kd (soluble human FcRn [1]): 18 µM | IC50 (soluble human FcRn [2]): 100 µM

B1: Peptide No. 264 (peptide)
peptide: RFXTGXFGGLYPC
modifications: Pen at 3; 4-PiperidylAla at 6; Sar at 9; NMeLeu at 10; disulfide; C-terminal amide
Kd (soluble human FcRn [3]): 5.2 µM | Kd (soluble human FcRn [4]): 6.4 µM | IC50 (soluble human FcRn [5]): 85 µM

B2: Peptide No. 176 (peptide)
peptide: QRFVTGHFG[dP]YYPANGP-NH2
modifications: N-terminus assumed
SMILES: CC(C)[C@H](NC(=O)[C@H](Cc1ccccc1)NC(=O)[C@H](CCCNC(=N)N)NC(=O)[C@@H](N)CCC(N)=O)C(=O)N[C@H](C(=O)NCC(=O)N[C@@H](Cc1c[nH]cn1)C(=O)N[C@@H](Cc1ccccc1)C(=O)NCC(=O)N1CCC[C@@H]1C(=O)N[C@@H](Cc1ccc(O)cc1)C(=O)N[C@@H](Cc1ccc(O)cc1)C(=O)N1CCC[C@H]1C(=O)N[C@@H](C)C(=O)N[C@@H](CC(N)=O)C(=O)NCC(=O)N1CCC[C@H]1C(N)=O)[C@@H](C)O
IC50 (soluble human FcRn [6]): 230 µM

B3: Peptide No. 190 (peptide)
peptide: QRFVTGHFG[dP]WYPINGP-NH2
modifications: N-terminus assumed
SMILES: CC[C@H](C)[C@H](NC(=O)[C@@H]1CCCN1C(=O)[C@H](Cc1ccc(O)cc1)NC(=O)[C@H](Cc1c[nH]c2ccccc12)NC(=O)[C@H]1CCCN1C(=O)CNC(=O)[C@H](Cc1ccccc1)NC(=O)[C@H](Cc1c[nH]cn1)NC(=O)CNC(=O)[C@@H](NC(=O)[C@@H](NC(=O)[C@H](Cc1ccccc1)NC(=O)[C@H](CCCNC(=N)N)NC(=O)[C@@H](N)CCC(N)=O)C(C)C)[C@@H](C)O)C(=O)N[C@@H](CC(N)=O)C(=O)NCC(=O)N1CCC[C@H]1C(N)=O
IC50 (soluble human FcRn [6]): 49 µM

B4: Peptide No. 193 (peptide)
peptide: RFXTGHFXLYPC
modifications: Pen at 3; X at 8 = (3S)-3-amino-2-oxo-1-piperidine-acetic acid; disulfide; C-terminal amide
IC50 (soluble human FcRn [7]): 7.3 µM

QRFXTGHXGGLYPCNGP (Pen at 4; 4-MePhe at 8; disulfide; C-terminal amide) [Peptide No. 90]
Kd (soluble human FcRn [1]): 0.2 µM

RFXTGXFGGLYPC (Pen at 3; 3PyridylAla at 6; Sar at 9; NMeLeu at 10; disulfide; C-terminal amide) [Peptide No. 250]
Kd (soluble human FcRn [3]): 0.064 µM | Kd (soluble human FcRn [4]): 0.26 µM | IC50 (soluble human FcRn [5]): 1.2 µM

QRFCTAHFGGLYPCNGP-NH2 (disulfide 4-14 (inferred)) [SEQ ID NO:28]
IC50 (soluble human FcRn [8]): > 125 µM

QRFCTGHFGGLAPCNGP-NH2 (disulfide 4-14 (inferred)) [SEQ ID NO:34]
IC50 (soluble human FcRn [8]): > 125 µM

QRFCTGHFGALYPCNGP-NH2 (disulfide 4-14 (inferred)) [SEQ ID NO:32]
IC50 (soluble human FcRn [8]): > 125 µM

QRFCTGHAGGLYPCNGP-NH2 (disulfide 4-14 (inferred)) [SEQ ID NO:30]
IC50 (soluble human FcRn [8]): > 125 µM

QRFCTGAFGGLYPCNGP-NH2 (disulfide 4-14 (inferred)) [SEQ ID NO:29]
IC50 (soluble human FcRn [8]): > 125 µM

B5: Peptide No. 268 (peptide)
peptide: RFXTGXFGGLYPC
modifications: Pen at 3; 4-PyridylAla at 6; Sar at 9; NMeLeu at 10; disulfide; C-terminal amide
Kd (soluble human FcRn [3]): 0.067 µM | Kd (soluble human FcRn [4]): 0.28 µM | IC50 (soluble human FcRn [5]): 1.3 µM

B6: Peptide No. 80 (as printed in Table 18) (peptide)
peptide: RFXTGHFXLYPC
modifications: Pen at 3; X at 8 = 3-amino-N-1-carboxymethyl-2,3,4,5-tetrahydro-1H-[1]-benzazepine-2-one (drawing CHEM-US-00083); disulfide; C-terminal amide
IC50 (soluble human FcRn [7]): 159 µM

B7: Peptide No. 210 (peptide)
peptide: RFVTGHFG[dP]WYPANGP-NH2
modifications: N-terminus assumed
SMILES: CC(C)[C@H](NC(=O)[C@H](Cc1ccccc1)NC(=O)[C@@H](N)CCCNC(=N)N)C(=O)N[C@H](C(=O)NCC(=O)N[C@@H](Cc1c[nH]cn1)C(=O)N[C@@H](Cc1ccccc1)C(=O)NCC(=O)N1CCC[C@@H]1C(=O)N[C@@H](Cc1c[nH]c2ccccc12)C(=O)N[C@@H](Cc1ccc(O)cc1)C(=O)N1CCC[C@H]1C(=O)N[C@@H](C)C(=O)N[C@@H](CC(N)=O)C(=O)NCC(=O)N1CCC[C@H]1C(N)=O)[C@@H](C)O
IC50 (soluble human FcRn [6]): 100 µM

QRFXTGHXGGLYPCNGP (Pen at 4; 2-MePhe at 8; disulfide; C-terminal amide) [Peptide No. 88]
Kd (soluble human FcRn [1]): 0.2 µM | IC50 (soluble human FcRn [2]): 1 µM

RFXTGHXGGLYPC (Pen at 3; 3-Cl-Phe at 7; disulfide; C-terminal amide) [Peptide No. 222]
IC50 (soluble human FcRn [2]): 3.7 µM

RFXTGHXGGLYPC (Pen at 3; 2-Cl-Phe at 7; disulfide; C-terminal amide) [Peptide No. 221]
IC50 (soluble human FcRn [2]): 4 µM

QRFXTGHXGGLYPCNGP (Pen at 4; PheNHAc at 8; disulfide; C-terminal amide) [Peptide No. 94]
Kd (soluble human FcRn [1]): 270 µM

QRFXTGHXGGLYPCNGP (Pen at 4; 4-amino-Phe at 8; disulfide; C-terminal amide) [Peptide No. 55]
Kd (soluble human FcRn [1]): 1 µM

QRFXTGHXGGLYPCNGP (Pen at 4; pentafluoro-Phe at 8; disulfide; C-terminal amide) [Peptide No. 57]
Kd (soluble human FcRn [1]): 70 µM

B8: Peptide No. 181 (peptide)
peptide: RFXTGHFXLYPC
modifications: Pen at 3; X at 8 = 3-amino-N-1-carboxymethyl-2,3,4,5-tetrahydro-1H-[1]-benzazepine-2-one (drawing CHEM-US-00084); disulfide; C-terminal amide
IC50 (soluble human FcRn [7]): 1.2 µM

RFXTGHFXLYPC (Pen at 3; X at 8 = 6,5-bicyclic dipeptide mimic; disulfide; C-terminal amide) [Peptide No. 204]
IC50 (soluble human FcRn [7]): 2.2 µM

B9: Peptide No. 259 (peptide)
peptide: RFXTGXFGGLYPC
modifications: not fully specified; Pen at 3; His(Me) (mono-methylated histidine) at 6; disulfide; C-terminal amide
Kd (soluble human FcRn [3]): 0.14 µM | Kd (soluble human FcRn [4]): 0.38 µM | IC50 (soluble human FcRn [5]): 2.9 µM

QRFXTGHXGGLYPCNGP (Pen at 4; 3-MePhe at 8; disulfide; C-terminal amide) [Peptide No. 89]
Kd (soluble human FcRn [1]): 0.67 µM | IC50 (soluble human FcRn [2]): 4.1 µM

RFXTGXFGGLYPC (Pen at 3; 4GuanylPhe at 6; Sar at 9; NMeLeu at 10; disulfide; C-terminal amide) [Peptide No. 257]
Kd (soluble human FcRn [3]): 0.074 µM | Kd (soluble human FcRn [4]): 0.073 µM

B10: Peptide No. 239 (peptide)
peptide: RFXTGHFXLYPC
modifications: Pen at 3; X at 8 = 3(S)-3-amino-2-oxo-1-azepine acetic acid; NMeLeu at 9; disulfide; C-terminal amide
IC50 (soluble human FcRn [7]): 0.62 µM

RFXTGKFGGLYPC (Pen at 3; Sar at 9; NMeLeu at 10; disulfide; C-terminal amide) [Peptide No. 255]
Kd (soluble human FcRn [3]): 1.3 µM | Kd (soluble human FcRn [4]): 1.1 µM | IC50 (soluble human FcRn [5]): 40 µM

RFXTGRFGGLYPC (Pen at 3; Sar at 9; NMeLeu at 10; disulfide; C-terminal amide) [Peptide No. 256]
Kd (soluble human FcRn [3]): 0.5 µM | Kd (soluble human FcRn [4]): 0.5 µM | IC50 (soluble human FcRn [5]): 5.5 µM

QRFXTGHFGGLYPCNGP (Pen at 4; Sar at 9; disulfide; C-terminal amide) [Peptide No. 111]
Kd (soluble human FcRn [9]): 2 µM

QRFXTGHWGGLYPCNGP (Pen at 4; disulfide; C-terminal amide) [Peptide No. 95]
IC50 (soluble human FcRn [2]): 26 µM

QRFXTGHXGGLYPCNGP (Pen at 4; 2-napthylalanine at 8; disulfide; C-terminal amide) [Peptide No. 62]
Kd (soluble human FcRn [1]): 11 µM | IC50 (soluble human FcRn [2]): 90 µM

QRFXTGHXGGLYPCNGP (Pen at 4; 3-PyridylAla at 8; disulfide; C-terminal amide) [Peptide No. 59]
Kd (soluble human FcRn [1]): 19 µM | IC50 (soluble human FcRn [2]): 60 µM

B11: Peptide No. 251 (peptide)
peptide: RFXTGXFGGLYPC
modifications: not fully specified; Pen at 3; ThienylAla at 6; Sar at 9; NMeLeu at 10; disulfide; C-terminal amide
Kd (soluble human FcRn [3]): 2 µM | Kd (soluble human FcRn [4]): 3 µM | IC50 (soluble human FcRn [5]): 45 µM

B12: Peptide No. 167 (peptide)
peptide: QRFVTGHFG[dP]LYPVANGP-NH2
modifications: N-terminus assumed
SMILES: CC(C)C[C@H](NC(=O)[C@H]1CCCN1C(=O)CNC(=O)[C@H](Cc1ccccc1)NC(=O)[C@H](Cc1c[nH]cn1)NC(=O)CNC(=O)[C@@H](NC(=O)[C@@H](NC(=O)[C@H](Cc1ccccc1)NC(=O)[C@H](CCCNC(=N)N)NC(=O)[C@@H](N)CCC(N)=O)C(C)C)[C@@H](C)O)C(=O)N[C@@H](Cc1ccc(O)cc1)C(=O)N1CCC[C@H]1C(=O)N[C@H](C(=O)N[C@@H](C)C(=O)N[C@@H](CC(N)=O)C(=O)NCC(=O)N1CCC[C@H]1C(N)=O)C(C)C
notes: printed with -VA- before NGP
IC50 (soluble human FcRn [6]): 93 µM

RFXTGXFGGLYPC (Pen at 3; His(Me)2 (di-methylated histidine) at 6; disulfide; C-terminal amide) [Peptide No. 260]
Kd (soluble human FcRn [3]): 0.19 µM | Kd (soluble human FcRn [4]): 0.46 µM | IC50 (soluble human FcRn [5]): 4.4 µM

RFXTGHXGGLYPC (Pen at 3; 3,3-Di-Phe at 7; disulfide; C-terminal amide) [Peptide No. 224]
IC50 (soluble human FcRn [2]): 32 µM

QRFCTGHFGGLYPXNGP (Pen at 14; disulfide; C-terminal amide) [Peptide No. 33]
IC50 (soluble human FcRn [10]): 18 µM

QRFXTGHXGGLYPCNGP (Pen at 4; 2-pyridylalanine at 8; disulfide; C-terminal amide) [Peptide No. 58]
IC50 (soluble human FcRn [2]): 90 µM

B13: Peptide No. 198 (peptide)
peptide: RFXTGHFXLYPC
modifications: Pen at 3; X at 8 = 5,5-bicyclic dipeptide mimic (drawing CHEM-US-00086); disulfide; C-terminal amide
IC50 (soluble human FcRn [7]): 23 µM
